The target of assay [1] is transforming growth factor-β1 (TGF-β1). Kind of assay: solution-phase competitor of ^125 I-TGF-β1 binding to immobilized α2 M-MA.
For assay [2], the target named is methylamine-modified human α2 -macroglobulin (α2 M-MA) (human) (UniProt P01023). The experiment in a line: ^125 I-TGF-β1 in α2 M-MA-coated wells with 0.2 µM unlabeled TGF-β.
In assay [3] the target is GST-α2 M peptide-fusion protein FP3 (human) (UniProt P01023). The experiment in a line: ligand blot; ^125 I-TGF-β1 on PVDF-immobilized FP3 with 0.2 µM unlabeled TGF-β1.
The target in assay [4] is methylamine-modified human α2 -macroglobulin (α2 M-MA) (human) (UniProt P01023). Kind of assay: ^125 I-TGF-β2 in α2 M-MA-coated wells with 0.2 µM unlabeled TGF-β.
The target in assay [5] is GST-α2 M peptide-fusion protein FP3 (human) (UniProt P01023). The experiment in a line: ligand blot; ^125 I-TGF-β2 on PVDF-immobilized FP3 with 0.2 µM unlabeled TGF-β2.
Assay [6] has as its target transforming growth factor-β1 (TGF-β1). Kind of assay: 0.1 nM ^125 I-TGF-β1 in α2 M-MA-coated microtiter wells, 1 h.
The target of assay [7] is transforming growth factor-β2 (TGF-β2). Kind of assay: 0.1 nM ^125 I-TGF-β2 in α2 M-MA-coated microtiter wells, 1 h.

Broadly, the IC50 is the concentration needed to halve the response being measured. Low readings indicate higher potency, high ones lower potency. In assay [1], “monomeric human α2 -macroglobulin (from UniProt P01023)” gave a 50% inhibitory concentration (IC50) of 360 nM. In assay [2], “transforming growth factor-β1 (TGF-β1) (ligand)” had a percent decrease of binding greater than 75%. Also, the percent inhibition of binding in assay [3] worked out at 72%. Consider “transforming growth factor-β2 (TGF-β2) (ligand)”, for which the percent decrease of binding in assay [4] was greater than 75%. Also, the percent inhibition of binding in assay [5] is 90%.

Turning to “methylamine-modified human α2 -macroglobulin (α2 M-MA) (from UniProt P01023)”, the amount of ^125 I-TGF-β bound is 3.4 fmol in assay [6] and 2.6 fmol in assay [7].

The record behind these values is patent US6329500.
